Reference: PMC11962113, “An unusual glycerol-3-phosphate dehydrogenase in Sulfolobus acidocaldarius elucidates the diversity of glycerol metabolism across Archaea” (Communications Biology, 2025)

B1: glycerol-3-phosphate dehydrogenase Saci_2032 (His-tagged, recombinant) (enzyme, S. acidocaldarius DSM 639, UniProt Q4J7A2 1-431, looked up)
chain: MEIKTSVLVIGGGANGLFTALDLALRGIDVTLVERRDIGSGTSGRFHGLLHSGARYAVTDPESAKECIQENNIISKIAPHAIRDTGGLFLGITKEDLEFLDKFLSSLKKLGIEHKIVDNNQVLQEEPYVNKDLKIAIWVPDKVVYGYDLLSSIAVTGSLNKARIMTYNEVTEFIRDGNSIKGVKVFDKITNQMNLIKSDIIINTSGPWAFKIITMAGLEEIPILPTAGIMAVFGKKVNNAVLNRLRPPSDGDIIVPYQDTSILGTTATIIEDPDNFTISDEDVKMLIKEGSQLVPELSKTRVIRTYASVRPLMRTSEDGRKASRDFTILDHEREDGVSGLISIIGGKFTTSRLVGEKVGDLVSEKLGVRAKSKTKETKLISPSEIDFEKYLEKIGISKIFLKSVMERRGSLDEERYKTVLYLLLSLIARGR
notes: GlpA-like FAD-dependent glycerol-3-phosphate dehydrogenase Saci_2032 of Sulfolobus acidocaldarius DSM 639, calculated mass 47.6 kDa; ORF amplified from genomic DNA; also called G3PDH; GlpA-like; source: E. coli Rosetta (DE3), pET15b-saci_2032, purified (Nickel-IDA)
B2: glycerol kinase Saci_1117 (enzyme, S. acidocaldarius DSM 639, UniProt Q4J9R1 1-498, looked up)
chain: MSKYILAVDEGTTSARALVFDEDLNVISIAQTELTQYFPRPGYVEQNPEEIFEKQVSMIKKAVEKAKIEISQVSAIGIANQRETTIMWDSRSGRPVYNAVVWQDRRTSDITDWLKSNYLNLFKSKTGLIPDPYFSASKIKWILDNVPGVREKAERGEIKFGTVDTYLIWKLTNGKVHVTDYSNASRTMLFNIKKLEWDRDILEILEIPEAILPEVRSSSEVYGYAEPVGNIPISGDAGDQQAALFGQLGFSKGDVKCTYGTGSFILMNSGEEIYDSKDLLTTIAWKIGKDVKYALEGSIFTTGAAVQWVRDGLGLVSSSDEIESLASSVVDNGGVYFVPAFSGLGSPYWDPYARGLIIGISRGTSRGHIARAVLESIAYQVRDVIEVIKKDVGKEFVNVLKVDGGVSKNNLLMQFQADILGIRIVRPRVIETTSMGASMLAGLAVDYWSSLEELKSKWAVDREFIPSLQEDRRERLYKGWKEAVRRTIGWAREVETME
notes: Glycerol kinase Saci_1117 of Sulfolobus acidocaldarius DSM 639, 498 amino acids, calculated mass 55.6 kDa; ORF amplified from genomic DNA; The results call the protein C-terminally His-tagged; also called GK; GlpK homologue; source: S. acidocaldarius MW001, homologous overexpression (pSVAmalFX-saci_1117-SH10), purified (Strep-Tactin XT 4Flow column)
B3: glycerol kinase Saci_2033 (enzyme, S. acidocaldarius DSM 639, UniProt Q4J7A3 1-497, looked up)
chain: MAEKYVIAIDEGTTSARAIVFDKELNILGIGQNEFTQYYPQPGYVEHSPEEIWQAQLLAINKALEKAKIDRNNILSIGITNQRETTVMWDTRTGKPIYNAIVWQDRRTAPITDYLKANYLRLIKDRTGLVPDPYFSASKIKWILDNIPNAREKAEKGEIKFGTIDTYLIWKLTNGKAHVTDYSNASRTMLFNIRKLEWDREILEILNIPEAILPDVKPSSEIYGYAEILNSSIPISGDAGDQQAALFGQIAFNQGDVKCTYGTGSFILLNTGSNLVSSNDLLTTIAWGVGKGITYALEGSIFITGAAVQWFRDGLRAIDVSDEIEPLAGSVPDNGGVYFVPAFTGLGAPYWDPYARGLIIGITRGTTKAHIARAILESMAYQTMDVLGIMQRDSGIKIDALKVDGGASKNDLLMQFQADILKMKVVRPKIMETTSMGVAMLAGLSVGYWNSMDELKQKWKIDQVFEPKMDDEYREKLYSGWKEAVRRALGWAKTIGG
notes: Glycerol kinase Saci_2033 of Sulfolobus acidocaldarius DSM 639, 497 amino acids, calculated mass 55.3 kDa; ORF amplified from genomic DNA; also called GK; GlpK
B4: glycerol-3-phosphate dehydrogenase Saci_1118 (His-tagged, recombinant) (enzyme, S. acidocaldarius DSM 639, UniProt Q4J9Q8 1-428, looked up)
chain: MKQNSSVIVIGGGATGLFTALDLSLRGINVTLVERGDIASGTSGKFHGLLHSGARYAVNDPESAKECKQENEVLSKIAPEFVRDTGGVFVGITEDDVNYSQRFLSALNSLGITNKVMDVEELIRREPFINKKSKIAIWVPDKVVYGYDLLATVALTASLNGAKILTYNEVKRVLREGNSVRRVEVKDNISGETKILNGDIIVNTAGPWAFRVIEMAGLGEIPLLPTAGIMVVMKEKLNSMVINRLRPPSDGDIIVPYGDSSIIGTTATIIPDPDNFEISDEDINMLIEEGAYMIPRLKEVKPERAYASVRPLIKNAEDGRGATRDFMIIDHEKVDSLDGLISVIGGKFTTSRLAGEKVSDMVSEKLGIREKSKTATIKLMSELDEKLLEKKRVPKVLVKMIRERKGSLDEDRYSTAMYILLSLLARGE
notes: GlpA-like FAD-dependent glycerol-3-phosphate dehydrogenase Saci_1118 of Sulfolobus acidocaldarius DSM 639, calculated mass 46.9 kDa; ORF amplified from genomic DNA; also called G3PDH; GlpA-like; source: E. coli Rosetta (DE3), pET15b-saci_1118, purified (Nickel-IDA)

What was measured:
Saci_2032 (G3PDH) = target: T1, Saci_2032 (G3PDH) (Sulfolobus acidocaldarius, UniProt Q4J7A2); experiment: absorption spectrum of bound FAD, […] nm, after SDS denaturation; assay type: binding; conditions: two FAD per homodimer; non-covalent per family; reduced by G3P at 70 °C
T1 construct: full length, N-terminal His tag (pET15b), E. coli Rosetta (DE3); homodimer with 2 FAD; without CoxG

Saci_1118 (G3PDH) = target: T2, Saci_1118 (G3PDH) (Sulfolobus acidocaldarius, UniProt Q4J9Q8); experiment: as above; assay type: binding; conditions: two FAD per homodimer; non-covalent per family; reduced by G3P at 70 °C
T2 construct: full length, N-terminal His tag (pET15b), E. coli Rosetta (DE3); homodimer with 2 FAD; without CoxG

purified protein [1] = substrate: COC1=C(OC)C(=O)C(CC=C(C)C)=C(C)C1=O; experiment: purified protein; assay type: biochemical, Sulfolobus acidocaldarius; conditions: 0.4 mM G3P, no DCPIP, 50 mM HEPES-KOH pH 6.5, 100 mM KCl, 70 °C
purified protein [2] = substrate: O=P(O)(O)OC[C@H](O)CO; experiment: purified protein; assay type: biochemical, Sulfolobus acidocaldarius; conditions: 0.06 mM DCPIP as electron acceptor, 50 mM HEPES-KOH pH 6.5, 100 mM KCl, 70 °C
[3] = target: the molecule itself; experiment: SEC; Superose 6 Increase 10/300 GL, 50 mM TRIS-HCl pH 7.5, 250 mM NaCl; GKs 50 µg in 200 µL, G3PDHs 19 mg Saci_2032 or 6 mg Saci_1118 in 500 µL; calibrated with LMW and HMW gel filtration kits; native mass compared with subunit mass
purified protein [4] = substrate: Nc1ncnc2c1ncn2[C@@H]1O[C@H](COP(=O)(O)OP(=O)(O)OP(=O)(O)O)[C@@H](O)[C@H]1O; experiment: purified protein; assay type: biochemical, Sulfolobus acidocaldarius; conditions: 2 mM glycerol
purified protein [5] = substrate: OCC(O)CO; experiment: purified protein; assay type: biochemical, Sulfolobus acidocaldarius
[6] = 1 mM ATP, 1 mM MgCl2, 0.1 M TRIS-HCl pH 7, 50 °C
[7] = 5 mM ATP, 5 mM MgCl2, 0.1 M MOPS-KOH pH 6.5, 50 °C

Row | Molecule | Km (purified protein [1]) [µM] | Vmax (purified protein [1]) [µmol/min/mg] | kcat/Km (purified protein [1]) [M⁻¹ s⁻¹] | Km (purified protein [2]) [µM] | Vmax (purified protein [2]) [µmol/min/mg] | kcat/Km (purified protein [2]) [M⁻¹ s⁻¹] | stoichiometry N [3] | further results
1 | Cc1cc2nc3c(=O)[nH]c(=O)nc-3n(C[C@H](O)[C@H](O)[C@H](O)COP(=O)(O)OP(=O)(O)OC[C@H]3O[C@@H](n4cnc5c(N)ncnc54)[C@H](O)[C@@H]3O)c2cc1C [FAD] | – | – | – | – | – | – | – | absorption spectrum of bound FAD, 450 nm, after SDS denaturation (Saci_2032 (G3PDH)): a FAD content of two per homodimer was determined for both enzymes; absorption spectrum of bound FAD, 450 nm, after SDS denaturation (Saci_1118 (G3PDH)): a FAD content of two per homodimer was determined for both enzymes
2 | B1 | 179 ± 75 | 21.1 | 128000 ± 58900 | 55 ± 9 | 44.5 | 642000 ± 111000 | 2 | –
3 | B2 | – | – | – | – | – | – | 2 | Km (purified protein [4]; 0.1 M TRIS-HCl pH 7, 50 °C): 205 ± 24 µM; Vmax (purified protein [4]; 0.1 M TRIS-HCl pH 7, 50 °C): 50.8 µmol/min/mg; kcat/Km (purified protein [4]; 0.1 M TRIS-HCl pH 7, 50 °C): 229000 ± 28400 M⁻¹ s⁻¹; Km (purified protein [5]; [6]): 24 ± 1 µM; Vmax (purified protein [5]; [6]): 45.7 µmol/min/mg; kcat/Km (purified protein [5]; [6]): 6.4e+06 ± 507000 M⁻¹ s⁻¹
4 | B3 | – | – | – | – | – | – | 2 | Km (purified protein [4]; 0.1 M MOPS-KOH pH 6.5, 50 °C): 174 ± 19 µM; Vmax (purified protein [4]; 0.1 M MOPS-KOH pH 6.5, 50 °C): 91 µmol/min/mg; kcat/Km (purified protein [4]; 0.1 M MOPS-KOH pH 6.5, 50 °C): 485000 ± 57100 M⁻¹ s⁻¹; Km (purified protein [5]; [7]): 24 ± 4 µM; Vmax (purified protein [5]; [7]): 88.2 µmol/min/mg; kcat/Km (purified protein [5]; [7]): 1.31e+07 ± 2.2e+06 M⁻¹ s⁻¹
5 | B4 | 86 ± 19 | 18.7 | 170000 ± 39700 | 19 ± 3 | 19.6 | 808000 ± 131000 | 2 | –
